Reference: the DeepSol protein solubility set

Assay: soluble on expression in E. coli; label from the status in PepcDB or PDB records

Sequence | soluble on expression in E. coli
MSLVENLFLEPQSKRRKINPETIESPSPNCNHWFVRNKICISCYTTVDNFEGRSFDYLYKGMQMSNEALGFTKGLISQTSWLEDKKLHLVLDLDQTLIHTIKTSLLYESEKYIIEEVESRKDIKRFNTGFPEESLIKLRPFVHQFLKECNEMFSMYVYTKGGYDYARLVLEMIDPDKFYFGNRVITRRESPGFKTLDLVLADERGIVIVDDTSSVWPHDKKNLLQIARYKYFGDKSCLFSEDKKKIDESDEKGPLNTALRFLKDVHEEFFYDWSKKDLDSVDVRPLLKEISLRWKRKADGVV | soluble
MASYRVAALYRFTRFEDPAAIQGPLAALCCSLGVKGTLLLAREGINGTIAGEDAAIEAVLAHIRALPGCADLTPKTAWAERMPFYRMKVRLKKEIVTLGEPDLDPTDAGTYVEPADWNALISDPDVLVIDTRNAYEVAVGRFEGAIDPQTASFADFPAWFRDWRKSVEAQRGPEAPLKVAMYCTGGIRCEKSTAFLKAEGVEQVFHLKGGVLDYLEQIPQPESLWRGECFVFDERVSVGHGLVKGDHVLCRGCRMPVSPQDQASPLYVEGVACPACHDQRNEEQKARAAERHRQVLHCEALGVDHVGATLPTKIDLEHHHHHH | not soluble
MLRKLWKRPHSTWNKITAVTNVSSEKTITDGQLSEKARKDVDHDVDRTIYDIPLEYCHLRIPKSRTSRSCPDPWRRYGAHVKLCEVGGWMPENRNKNSKVIVVKKGSAPPAAPRCKPLMTVEDYLGVLRK | not soluble
MMPYILVFMVCIFLTSISSRKKIIPLLLSCLILSLFAGFRDKNIGSDTDFYPHWYISEIRYIHNLIDLITIETERNLDKGYLFLYWIASWIGNQ | not soluble
MGSDKIHHHHHHMHLELRHLRTIRAIHQAGGLARAADVLHMTQSALSHQVKGLEDQAGIELFVRRSKPLKLSAAGIRLLRLAERILPEIDALEDEFRALRSGRTGRLHIAIECHACFEWLFPVLELFRHAWPEIDVDIRAGLAFEALPALMREEVDLVISSDPVTVEGMVFNPLFDYHPTFVAAASNPLAAREFISAEDFRDQMLITYPVSRDRLDVFTEVLTPAKVEPRGTRQVELTAVILMLVASNRGVSVLPDWVLRDVRSHADYVTRPLGPKTVTKRLYAATRTEDATKPFMAHFLRLGRSEPVKLQRA | not soluble
MGSDKIHHHHHHMANNIQGFVMIGAQAIVFSITNLRTLKTIERGRYPVAIGDDFYAEHEILPDTVDAIVQAFDAINQIFKDYGVPTVNVFASTSWAEADNAEFVRDQLYTRTGWLIKTTSLSEEAFFRTQAIMVKFPQFKSITQKGTVLIDISSGSVELTTFSNGVFGFSRNLSLGPLRVYEIMSDVQRSVTNYVEVMRDYIDSRLLDFMRLLPQGVEYTNMILMGSNLSIFQNIIPEGKHQVETDRPGFDLLYDEVTKASDQYLADTYDLTSDQTSLVLPTVLLVYRLVETLNSQSIWISDLKAIDGIEVNAAHEGGFKKLGFDPNEEIVISANNLAERYQVDEAHMQATRTVALQLFDRLKKLHGMGKRERLLLEVAATVSDIGSYIETHKHYAHSNYIIKASEIMGLNDLEVTMVATITRFHSSITPQSDLKNFPTMSTENRLVVAKLSALLRVADSLDASRQQKIQQLRVSVKPNEVLLTARADDDIELERWTLARKGKFFSEVFGLGLELKGRNIL | not soluble
GTAGKVIKCKAAVLWEQKQPFSIEEIEVAPPKTKEVRIKILATGICRTDDHVIKGTMVSKFPVIVGHEATGIVESIGEGVTTVKPGDKVIPLFLPQCRECNACRNPDGNLCIRSDITGRGVLADGTTRFTCKGKPVHHFMNTSTFTEYTVVDESSVAKIDDAAPPEKVCLIGCGFSTGYGAAVKTGKVKPGSTCVVFGLGGVGLSVIMGCKSAGASRIIGIDLNKDKFEKAMAVGATECISPKDSTKPISEVLSEMTGNNVGYTFEVIGHLETMIDALASCHMNYGTSVVVGVPPSAKMLTYDPMLLFTGRTWKGCVFGGLKSRDDVPKLVTEFLAKKFDLDQLITHVLPFKKISEGFELLNSGQSIRTVLTF | soluble
MGSDKIHHHHHHMPFKAKDQQGNIVLATDFKSVLEIRKNFPKGSLFCPFCQTLMFPRKRQNTSLHFVHTHPCTTVMEHHPESPEHLQGKLEISKYFQEVYKGMIDAQEAFIEIEHPISEAGKNGRIADVAVVFSTGYRIIGECQLAKIEAADIYQRTQDYYSISADVLWFLGGAADTPENRQAAVDLDVFAGTINFTYST | not soluble
MQLDVYGYVVETLYLAHQSGVARCGDTAVLHQRLVEHLAERWQMPDEGIWEVRGERRHFVHSKVMAWAVVDRTIRLVEAGALDAGLCALMELREAIRHEVCTRGFEP | not soluble
